System: engineered chimeric receptor SEQ ID NO: 33 and its mutants (human α7-nAChR ligand binding domain / human GlyRα1 ion pore domain) in Lenti-X 293T cells
Assay: YFP fluorescence quenching anion reporter plate reader assay (percent quench, EC50)
Format: cell-based
Conditions: for YFP fluorescence quenching using CNL001 (percent quench): receptor named in row; for YFP fluorescence quenching using Facinicline, 30 nM fac: ligand Facinicline 30 nM; for YFP fluorescence quenching using Facinicline, 300 nM fac: ligand Facinicline 300 nM; for YFP fluorescence quenching using Facinicline, 30 uM fac: ligand Facinicline 30 uM; for YFP fluorescence quenching using TC-6987, 1 uM tc6987: ligand TC-6987 1 uM; for YFP fluorescence quenching using TC-6987, 10 uM tc6987: ligand TC-6987 10 uM; for YFP fluorescence quenching using TC-6987, 500 uM tc6987: ligand TC-6987 500 uM; for YFP fluorescence quenching using Varenicline, 3 nM var: ligand Varenicline 3 nM; for YFP fluorescence quenching using Varenicline, 30 nM var: ligand Varenicline 30 nM; for YFP fluorescence quenching using Varenicline, 300 nM var: ligand Varenicline 300 nM; for YFP fluorescence quenching using Varenicline, 500 nM var: ligand Varenicline 500 nM; for YFP fluorescence quenching using Varenicline, 1 uM var: ligand Varenicline 1 uM
Procedure, shortened: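 Percent quench compares mean YFP signal over the final 10 s with the 15 s baseline before ligand, added in iodide-containing extracellular solution (pH 7.2). Cells were LX293T carrying a YFP anion reporter, transiently transfected with the channel construct; plates were preincubated 30 min at 37 °C.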

[1] = 1 nM CNL001, first column so headed
[2] = 1 nM CNL001, second column so headed
[3] = 3 nM brd (TC-5619/Bradanicline)
[4] = 10 nM CNL001, first column so headed
[5] = 10 nM CNL001, second column so headed
[6] = 30 nM brd (TC-5619/Bradanicline)
[7] = 50 nM CNL001, first column so headed
[8] = 50 nM CNL001, second column so headed
[9] = 100 nM CNL001, first column so headed
[10] = 100 nM CNL001, second column so headed
[11] = 300 nM brd (TC-5619/Bradanicline)
[12] = 1 uM CNL001, first column so headed
[13] = 1 uM CNL001, second column so headed

B1: CODA340: engineered receptor: L131E in SEQ ID NO: 33 (protein)
chain: MRCSPGGVWLALAASLLHVSLQGEFQRKLYKELVKNYNPLERPVANDSQPLTVYFSLSLLQIMDVDEKNQVLTTNIWLQMSWTDHYLQWNVSEYPGVKTVRFPDGQIWKPDILLYNSADERFDATFHTNVEVNSSGHCQYLPPGIFKSSCPMDLKNFPMDVQTCKLKFGSWSYGGWSLDLQMQEADISGYIPNGEWDLVGIPGKRSERFYECCKEPYPDVTFTVTMRRRMGYYLIQMYIPSLLIVILSWISFWINMDAAPARVGLGITTVLTMTTQSSGSRASLPKVSYVKAIDIWMAVCLLFVFSALLEYAAVNFVSRQHKELLRFRRKRRHHKSPMLNLFQEDEAGEGRFNFSAYGMGPACLQAKDGISVKGANNSNTTNPPPAPSKSPEEMRKLFIQRAKKIDKISRIGFPMAFLIFNMFYWIIYKIVRREDVHNQ
modifications: synthetic sequence of chimeric LGIC
YFP fluorescence quenching using CNL001 (percent quench) [1]: 76.413%
YFP fluorescence quenching using CNL001 (percent quench) [2]: 77.144%
YFP fluorescence quenching using TC-5619/Bradanicline (percent quench) [3]: 68.57%
YFP fluorescence quenching using CNL001 (percent quench) [4]: 78.258%
YFP fluorescence quenching using CNL001 (percent quench) [5]: 78.763%
YFP fluorescence quenching using TC-6683 (percent quench) (30 nM TC-6683): 30.14%
YFP fluorescence quenching using TC-5619/Bradanicline (percent quench) [6]: 76.85%
YFP fluorescence quenching using CNL001 (percent quench) [7]: 79.757%
YFP fluorescence quenching using CNL001 (percent quench) [8]: 79.327%
YFP fluorescence quenching using ABT-126 (percent quench) (50 nM abt (ABT-126)): 2.2%
YFP fluorescence quenching using CNL001 (percent quench) [9]: 79.011%
YFP fluorescence quenching using CNL001 (percent quench) [10]: 79.948%
YFP fluorescence quenching (percent quench) (100 nM CNL002): 49.97%
YFP fluorescence quenching using ABT-126 (percent quench) (100 nM abt (ABT-126)): 25.39%
YFP fluorescence quenching using AZD-0328 (percent quench) (100 nM azd0328): 82.48%
YFP fluorescence quenching using TC-6683 (percent quench) (300 nM TC-6683): 33.02%
YFP fluorescence quenching using ABT-126 (percent quench) (300 nM abt (ABT-126)): 36.48%
YFP fluorescence quenching using AZD-0328 (percent quench) (300 nM azd0328): 82.04%
YFP fluorescence quenching using TC-5619/Bradanicline (percent quench) [11]: 78.49%
YFP fluorescence quenching using CNL001 (percent quench) [12]: 79.855%
YFP fluorescence quenching using CNL001 (percent quench) [13]: 80.618%
YFP fluorescence quenching (percent quench) (1 uM CNL002): 67.8%
YFP fluorescence quenching using ABT-126 (percent quench) (1 uM abt (ABT-126)): 50.76%
YFP fluorescence quenching using TC-6683 (percent quench) (3 uM TC-6683): 41.68%
YFP fluorescence quenching (percent quench) (10 uM ach (acetylcholine)): 15.29%
YFP fluorescence quenching (percent quench) (30 uM CNL002): 64.58%
YFP fluorescence quenching using TC-6683 (percent quench) (30 uM TC-6683): 35.75%
YFP fluorescence quenching (percent quench) (30 uM ach (acetylcholine)): 66.56%
YFP fluorescence quenching using AZD-0328 (percent quench) (30 uM azd0328): 81.8%
YFP fluorescence quenching using TC-6683 (percent quench) (100 uM TC-6683): 24.32%
YFP fluorescence quenching (percent quench) (100 uM ach (acetylcholine)): 81.31%
YFP fluorescence quenching (percent quench) (1 mM ach (acetylcholine)): 80.77%
YFP fluorescence quenching (percent quench) (3 mM ach (acetylcholine)): 77.31%
YFP fluorescence quenching using Facinicline, 30 nM fac: 82.51
YFP fluorescence quenching using Facinicline, 100 nM fac (ligand Facinicline 100 nM): 83.6
YFP fluorescence quenching using Facinicline, 300 nM fac: 82.92
YFP fluorescence quenching using Facinicline, 30 uM fac: 82.68
YFP fluorescence quenching using TC-6987, 1 uM tc6987: 80.13
YFP fluorescence quenching using TC-6987, 10 uM tc6987: 81.29
YFP fluorescence quenching using TC-6987, 500 uM tc6987: 79.6
YFP fluorescence quenching using Varenicline, 3 nM var (first column): −4.061
YFP fluorescence quenching using Varenicline, 3 nM var (second column): −0.568
YFP fluorescence quenching using Varenicline, 30 nM var (first column): 62.964
YFP fluorescence quenching using Varenicline, 30 nM var (second column): 63.631
YFP fluorescence quenching using Varenicline, 300 nM var (first column): 74.912
YFP fluorescence quenching using Varenicline, 300 nM var (second column): 75.084
YFP fluorescence quenching using Varenicline, 500 nM var (first column): 76.346
YFP fluorescence quenching using Varenicline, 500 nM var (second column): 75.876
YFP fluorescence quenching using Varenicline, 1 uM var (first column): 75.805
YFP fluorescence quenching using Varenicline, 1 uM var (second column): 74.856

B2: CODA342: engineered receptor: L131R in SEQ ID NO: 33 (protein)
chain: MRCSPGGVWLALAASLLHVSLQGEFQRKLYKELVKNYNPLERPVANDSQPLTVYFSLSLLQIMDVDEKNQVLTTNIWLQMSWTDHYLQWNVSEYPGVKTVRFPDGQIWKPDILLYNSADERFDATFHTNVRVNSSGHCQYLPPGIFKSSCPMDLKNFPMDVQTCKLKFGSWSYGGWSLDLQMQEADISGYIPNGEWDLVGIPGKRSERFYECCKEPYPDVTFTVTMRRRMGYYLIQMYIPSLLIVILSWISFWINMDAAPARVGLGITTVLTMTTQSSGSRASLPKVSYVKAIDIWMAVCLLFVFSALLEYAAVNFVSRQHKELLRFRRKRRHHKSPMLNLFQEDEAGEGRFNFSAYGMGPACLQAKDGISVKGANNSNTTNPPPAPSKSPEEMRKLFIQRAKKIDKISRIGFPMAFLIFNMFYWIIYKIVRREDVHNQ
modifications: synthetic sequence of chimeric LGIC
YFP fluorescence quenching using CNL001 (percent quench) [1]: 23.532%
YFP fluorescence quenching using CNL001 (percent quench) [2]: 26.054%
YFP fluorescence quenching using TC-5619/Bradanicline (percent quench) (1 nM brd (TC-5619/Bradanicline)): −7.83%
YFP fluorescence quenching using TC-5619/Bradanicline (percent quench) [3]: −12.89%
YFP fluorescence quenching using CNL001 (percent quench) [4]: 43.69%
YFP fluorescence quenching using CNL001 (percent quench) [5]: 54.016%
YFP fluorescence quenching using TC-5619/Bradanicline (percent quench) (10 nM brd (TC-5619/Bradanicline)): −10.47%
YFP fluorescence quenching using TC-6683 (percent quench) (30 nM TC-6683): −16.26%
YFP fluorescence quenching using TC-5619/Bradanicline (percent quench) [6]: 59.48%
YFP fluorescence quenching using CNL001 (percent quench) [7]: 59.955%
YFP fluorescence quenching using CNL001 (percent quench) [8]: 56.091%
YFP fluorescence quenching using ABT-126 (percent quench) (50 nM abt (ABT-126)): −18.14%
YFP fluorescence quenching using CNL001 (percent quench) [9]: 64.536%
YFP fluorescence quenching using CNL001 (percent quench) [10]: 58.987%
YFP fluorescence quenching (percent quench) (100 nM CNL002): −17.2%
YFP fluorescence quenching using ABT-126 (percent quench) (100 nM abt (ABT-126)): −18.14%
YFP fluorescence quenching using AZD-0328 (percent quench) (100 nM azd0328): 1.79%
YFP fluorescence quenching using TC-5619/Bradanicline (percent quench) (100 nM brd (TC-5619/Bradanicline)): 70.19%
YFP fluorescence quenching using TC-6683 (percent quench) (300 nM TC-6683): −22.45%
YFP fluorescence quenching using ABT-126 (percent quench) (300 nM abt (ABT-126)): −0.81%
YFP fluorescence quenching using AZD-0328 (percent quench) (300 nM azd0328): 66.58%
YFP fluorescence quenching using TC-5619/Bradanicline (percent quench) [11]: 75.11%
YFP fluorescence quenching using ABT-126 (percent quench) (500 nM abt (ABT-126)): 23.29%
YFP fluorescence quenching using CNL001 (percent quench) [12]: 65.987%
YFP fluorescence quenching using CNL001 (percent quench) [13]: 64.312%
YFP fluorescence quenching (percent quench) (1 uM CNL002): 8.12%
YFP fluorescence quenching using ABT-126 (percent quench) (1 uM abt (ABT-126)): 45.76%
YFP fluorescence quenching using TC-5619/Bradanicline (percent quench) (1 uM brd (TC-5619/Bradanicline)): 77.42%
YFP fluorescence quenching using TC-6683 (percent quench) (3 uM TC-6683): −13.48%
YFP fluorescence quenching using ABT-126 (percent quench) (3 uM abt (ABT-126)): 53.03%
YFP fluorescence quenching using ABT-126 (percent quench) (10 uM abt (ABT-126)): 64.08%
YFP fluorescence quenching (percent quench) (10 uM ach (acetylcholine)): −2.57%
YFP fluorescence quenching (percent quench) (30 uM CNL002): 57.24%
YFP fluorescence quenching using TC-6683 (percent quench) (30 uM TC-6683): −12.68%
YFP fluorescence quenching using ABT-126 (percent quench) (30 uM abt (ABT-126)): 71.98%
YFP fluorescence quenching using AZD-0328 (percent quench) (30 uM azd0328): 80.55%
YFP fluorescence quenching using ABT-126 (percent quench) (50 uM abt (ABT-126)): 73.98%
YFP fluorescence quenching using TC-6683 (percent quench) (100 uM TC-6683): −10.33%
YFP fluorescence quenching using ABT-126 (percent quench) (100 uM abt (ABT-126)): 73.51%
YFP fluorescence quenching (percent quench) (100 uM ach (acetylcholine)): −3.18%
YFP fluorescence quenching (percent quench) (1 mM ach (acetylcholine)): 78.98%
YFP fluorescence quenching (percent quench) (3 mM ach (acetylcholine)): 75.75%
YFP fluorescence quenching using Facinicline, 30 nM fac: −6.2
YFP fluorescence quenching using Facinicline, 300 nM fac: 76.75
YFP fluorescence quenching using Facinicline, 10 uM fac (ligand Facinicline 10 uM): 82.16
YFP fluorescence quenching using Facinicline, 30 uM fac: 81.71
YFP fluorescence quenching using TC-6987, 1 uM tc6987: 2.51
YFP fluorescence quenching using TC-6987, 10 uM tc6987: 46.22
YFP fluorescence quenching using TC-6987, 500 uM tc6987: 68.33
YFP fluorescence quenching using Varenicline, 3 nM var (first column): 0.271
YFP fluorescence quenching using Varenicline, 3 nM var (second column): −3.613
YFP fluorescence quenching using Varenicline, 30 nM var (first column): −4.935
YFP fluorescence quenching using Varenicline, 30 nM var (second column): −4.363
YFP fluorescence quenching using Varenicline, 300 nM var (first column): 0.282
YFP fluorescence quenching using Varenicline, 300 nM var (second column): 2.32
YFP fluorescence quenching using Varenicline, 500 nM var (first column): 23.777
YFP fluorescence quenching using Varenicline, 500 nM var (second column): 18.376
YFP fluorescence quenching using Varenicline, 1 uM var (first column): 66.17
YFP fluorescence quenching using Varenicline, 1 uM var (second column): 66.088
